{
  "source": "patent US20130064803A1",
  "about": "“BIO-REPLENISHMENT (BioRep) FOR COGNITIVE HEALTH” (Naidu LP, priority 2011, published 2013)",
  "origin": "cited, not measured here",
  "molecules": {"B1": {"name": "LF: 80-kD heparan- and metal-binding glycoprotein, member of the transferrin super-family (protein, UniProt P02788 20-710, looked up)", "Lactotransferrin": "GRRRSVQWCAVSQPEATKCFQWQRNMRKVRGPPVSCIKRDSPIQCIQAIAENRADAVTLDGGFIYEAGLAPYKLRPVAAEVYGTERQPRTHYYAVAVVKKGGSFQLNELQGLKSCHTGLRRTAGWNVPIGTLRPFLNWTGPPEPIEAAVARFFSASCVPGADKGQFPNLCRLCAGTGENKCAFSSQEPYFSYSGAFKCLRDGAGDVAFIRESTVFEDLSDEAERDEYELLCPDNTRKPVDKFKDCHLARVPSHAVVARSVNGKEDAIWNLLRQAQEKFGKDKSPKFQLFGSPSGQKDLLFKDSAIGFSRVPPRIDSGLYLGSGYFTAIQNLRKSEEEVAARRARVVWCAVGEQELRKCNQWSGLSEGSVTCSSASTTEDCIALVLKGEADAMSLDGGYVYTAGKCGLVPVLAENYKSQQSSDPDPNCVDRPVEGYLAVAVVRRSDTSLTWNSVKGKKSCHTAVDRTAGWNIPMGLLFNQTGSCKFDEYFSQSCAPGSDPRSNLCALCIGDEQGENKCVPNSNERYYGYTGAFRCLAENAGDVAFVKDVTVLQNTDGNNNEAWAKDLKLADFALLCLDGKRKPVTEARSCHLAMAPNHAVVSRMDKVERLKQVLLHQQAKFGRNGSDCPDKFCLFQSETKNLLFNDNTECLARLHGKTTYEKYLGPQYVAGITNLKKCSTSPLLEACEFLRK"}},
  "settings": "intravenous infusion",
  "data": [
    {"molecule": "B1", "values": [
      {"measurement": "time to reach the cerebrospinal fluid", "result": "≤ 30", "unit": "min"}
    ]}
  ]
}
